This is an account of results in the NTF2 design screens of Basanta et al. (2020).

The series in a line: protease stability score; higher = more stable; yeast display proteolysis, trypsin and chymotrypsin.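 Further: relative to predicted unfolded state with 0 unfolded-like and 1 meaning tenfold more protease.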
The sequence “DELTEILKHAVERLLRHIVTGDEDSVSELADPNVKVDFNGQEYHGMHFFSHLASRFKGLRLELTELHSVGNYMDTRMHVEVNGKNIELILHSKKVNGKWSLERSEFH” had a protease stability score of 1.26.

Sequence “DELTEIMLRIAQLILTILLTGNEDHFKRLFDPNVRLTINGVDFVGREWIVHFMRNLTDELRIKDNKIEDIRVQGDKAKVDSRLDGEVDGQHMELRTSYVLIKIDGRWSVHSVEFR” returned a protease stability score of 1.26. As for “DELTELAEKAKELFVRIEKTGDEKTWSEYADPDVRIHVNGVDLHGREESLKWMHDLRERIKNMRVEFKDFKIEIIGNKVIIFIDGRLRYDGRELELESVYYVSKFNGRWRVESEELRIR”, the protease stability score was found to be 1.37. With “DELTESVREFIEHFIRALETGDWHILHRLLDPHVKLNVNGVEFHGREIIVEFLREIRIHSFIVHHVRIQGDWIDIDGETDGVINGRRIRTRTRIHLHKIDGRWQIKSESVI” the figure was 2.09; with “DELTEVADYLLEHFIRNLITGNEERVRHLADPHVRVIEVYGDKVEMRHGRDSMLKWMHDWRHHIRLKHYQIEHIEVQGEKSVVHGRLRGNIDGRDIDTRTHIEVVHIDGRFTSMRYEVR”, 0.555; with “DELTHAVTRFHKETMDAVRTGNEEWHSRLLDPNTRIHIGEFNNVGMEQVIEILRRVKNLRIHHVHLDHIDFYDGRADIHGTVHGIWNGRHRKVKHEHFLLKIDGVWYLEEIRVE”, 0.371. For the sequence “DELTKEFEHFLEMLRRAQETGDEETVAKLMDPDVRIIIDGRNIIGREELTRFVSEWREEITVNEKHLKVINGRIHVDGEYHSRIRFDGREQRYSTRVHIVTIKVDGQWLLRTVHIG”, the protease stability score is 1.05. Consider “DELTNEHERYLHFLWEMIKTGDEENLENLVDPHARLEFENREFHGREDVRKWLVEIRFHRVHLRRMEVQGNKVILDTELDGEFNGQRVRHTTKTHALKVNGQWLLHELIIK”, for which the protease stability score was determined as 1.25. Consider “DELTRDFEEATELLIRILLTGDEDIFREMADPNVRLHYGDKTFIGREEFVKWLHQWRIEDIKIDHVDLQGDYAIVHGRIRTVIGDKEHKVDTKWIIRKYNGKWDIREVHIR”, for which the protease stability score was 2.07. Next, “DELTREMDRVHEELVRSLTTGDEDRLASMMDPNARLRIDGVNFIGRDKIREFWHQIDHSSMHLHHIHVYGDKIRLEGELILNFNGVEHNHETLMIIKKVDGKWVIESIHLK”: 1.79; “DELTRQMRTFAERWIHAERTGDEEILRELMDPHAKLDVKQGDKRHDWHGRERITEFIRRMGIKHIQVDHVELQGEKIHMHVTMYVDGQVLDSTLKLWVVDGVTKSVEIEFK”: 1.2. With “DELTTLAREFLRLIKEVLETGDERTMHELADPNYRIRIGDKLVHGWEQQSELIIRIRTELGMTVKDSRIEDSHVQGDKLVVRVRLDMIQGDKKDSVDRIVRVDKINGKWIMSEIELI” the figure was 1.49.

“DELWELAFFIMKILLHLHLTGDEEMWSSYADPNVRFTLRVGDKEVKRHGMEDVEKFQTELEREIRVDHFDERRTHYYNGRARVDGHIDGLVNGRPVHFRTELHVHTIDGVVREVEIIIE” displayed a protease stability score of -0.045. Next, “DEMDEHARDLFELLLRIWLTGDEHELRELADPHVRIHVGDKNHVGMDKFAHEFIRHVQERGVRIEIRIRDHHAINGVSHSDGEIVLNYDGREYRMDTKIIMVIYNGKVKELRFHIR”: 1.39; “DEMDEISKEAWRMLKEITRTGDEDLMHKNVDPNARVIYGDKVVHGRERVTKILVEMRIDHEEHRDSRVVGNKVELDVHFDGEFDGRRFRTDVHWVIVKINGQWRIKEHVIL”: 1.22; “DEMDELAERIYETWVKRHLTGDEKVIEELMDPNVRIDIVVGDKKIHLIGRETASSFARRWFDHLRIDDMRMHSVETINGQIHSEVEVHRRIGDKERFILTRIEMHVINGKIHSIRLEIE”: 1.1. “DEMDEVMERWAREYISWEKTGDEEKAKKYVDPNVKTHIDFNGRHVENIGMESEFNFFRELGITIHDIKIREIELQGDKVRIKGRIVFQIGDFEIIIERTVHIVVINGQDRHSEFRFE” registered a protease stability score of 0.194. Next, “DEMDHWVMEMFEHLLKLFLTGDEEKWERLADPNVKTRFIINGKDVRLHGREHFKKLVDELRITSVDLRDIRAVGNKAEVEGRVEGEFDGQTHILDMRVRFEIINGKLKKEEYVIR”: 1.27; “DEMEDSSRWALEVEMKSFKTGDERSLYEMVDPHAKFEFENHHDHGRSAVELWREQADHMHIDFRLKDMRLVGDFIIIHGVELVHNHVNGRDIDLNLDVRIISRKINGRWILHHVLFR”: 1.38. With “DEMEEESHTVLKLIVESFRTGDEEEVRHLADPNVRLDVDGQRNHGWKMLLKFFRQIRWHDVELHDIELQGDKMHIIGHVDGNVNGRRRRLDTHILLVKIDGKWRLELVHIH”, the protease stability score turned out to be 1.55. Sequence “DEMEEHSRHLVELFWHWTDTGNEDLIRKNADPNVRLEVNGVHAHGWELYIRMMNQIRIEDRKINDVEVQGDKMRVDGEVQIYYNGKRVDDHLKLHLVVVDGKLKSVHRELE” came in with a protease stability score of 1.31. With “DEMEEKIRTHMSLLVEYLDTGDEEITKSMLDPNTMAFYGDKLHIGREEAEEILREIRVHHLDIKRIDHQGDKIRVDGEMDGIVNGKRYRTRVEIFSTKINGRWIIEQRVIR” the figure was 1.04. In turn, “DEMEEQIKRLIHLLAHYLRTGDEHSTEELADPNVRIHIDGKEYHGRELFIKFLHERLRHLGIKHIHIHIKDIREIDGRIHIDGELEQHIDGKERRMKQEMLVEKIDGQWHIKELEIE” showed a protease stability score of 2.59. Next, “DEMEESAERMIEIYLRWLETGDEDSLVENIDPNVRVEIGDKRYHGREEVMHFLSSIQQRIKGARFHLKHFEIQGEYVDIHMEQRVGDKTMDRRVIFQKIDGRWLLKRSQVR”: 1.5; “DEMEETTERITRLIHHYHRTGDWRLLSDLFDPHAKSEVNGVRLHGWHEMREFFENEMRELGIENVRFRYHLHDYRIFDGRVDLDVRLEIRIGDKEDHMESHIHTEKVNGQWRLRTLSLN”: 0.412; “DEMEKMSRDVHKQLKNAFETGDESEMERLLDPHAKIDIGDKRLHGMEEYSHLLHEWRIKDLHIKDIQVQGDKAISDTHRYLEIGDKEYEREVIVYVIKVDGRWIIHSLVFR”: 0.777. Next, “DEMEKWSEMALDLIAETVETGDEHTYRRNFDPHTRVNVNGRHLHGMEVWLKELHELGIDRIEMDMKDIRIQGDKAIIILTLIINGRFHHVSIVSVKIDGRWHLHSVKYD”: 0.33; “DEMEREVEKWVRIYLHALRTGDERILENMVDPEARTHINGRHDHGRDSLHKILKEMGFDHMHVEIRDVRVVNGQIHLEEIIRVDVDGRRITITVEVVIVKIDGRWIVKSFHIR”: 1.17. Next, “DEMERIIETALELLIKSERTGDEDLYREFLDPHTIIDINGKIIHGREEFVRWFTEIRVHELKLRDMEIQGEFAIIYGEVDGRIGDKHFHTSVRLIVYKIDGRWIMRWNELN”: 1.42. For “DEMERNEELALKIIEETQRTGDWHMIYEQLDPHVRIIIGDKTLVGREHVEEWLHRIDHLHVDDMKLEHSRPINGRILLDVHMHVHIRYGDKQVKHTTHVHIIMFKFNGRWYLKIVHIH”, the protease stability score came out at 2.65. As to “DEMHEYTERLLHLLTFAQITGDERIHERLADPNVKIHINGREFHGREEVWHSLEEIRVRHTELRESDIQGDKINVNGDVDLHFNGVDIVTKVRIVVDKVNGRWRISFLRID”, the protease stability score turned out to be 0.546. Turning to “DEMKEEQRKFSELAIHNFETGDEDTFHRLADPHTKVEINGVLHIGRETVTTFFSHYWELFGVDHFEEKDRKIEIQGEKVITRIRGIIHFNGRQTDVLIRLEIRKINGRWILHSFTIEHI”, the protease stability score is 0.579.

For the sequence “DEMKEWIRELIERWTHAFLTGDEDELKRLVDPHAKLDINGRDVIGREDFVEHLRRLFEELGVKHVSSRMRDIKIVNGRAHVDSEFRLRVGEKQESHRMHIISDKYNGRWVIQSIHVE”, the protease stability score was determined as 1.93. With “DEMQEVLERFAHEWFHNLHTGDEDTLLKLADPNVRVHVGDKDLIGRELWKEELHKMKGLKLELHDYHAINGRIHLDVTQKFNGKEVELEMDIIVVNGRVKEIRHQRR” the figure was 1.06.
